Reference: patent US20250206839A1, “METHODS, COMPOSITIONS AND USES FOR SEMA7A MONOCLONAL ANTIBODIES” (THE REGENTS OF THE UNIVERSITY OF COLORADO, A BODY CORPORATE, priority 2022, published 2025)

Legend:
[1] = test system: activated T cells in the tumors; experiment: Flow cytometry of immune cells in treated tumors; assay type: in vivo, mouse; details: IFNg and TNFa on CD8+ T cells
Experimental: For initial in vivo studies with SmABHI. SEMA7A OE E0771 mouse mammary carcinoma cells were injected into mice. Twenty days after carcinoma cells were injected. SmAbH1 (e.g., 12 ug) was administered intraperitoneally to the mice every three days until day 36 post-carcinoma cell injection. Tissues were collected at day 36. Tumors, lungs, and LNs were harvested and processed for IHC and flow cytometry to determine the effect of SEMA7A mAb therapy on cells of the tumor microenvironment (TME). In an additional experiment, tumors were treated at day 28 post-injection with a novel SEMA7A directed antibody, monoclonal antibody clone H1. Fully regressed tumors were removed from treatment at day 50) and the animals were re-challenged with an additional tumor inoculation at day 90 to assess SEMA7A mAb effects. […]
Tumors were separated from the mammary gland and placed in six-well plates with 2 mL of Click's media without mercaptoethanol or L-glutamine (Irvine Scientific, Santa Ana, CA), where they were minced with scalpels, digested with 500 units/ml collagenase type II and IV and 20 μg/ml DNase (Worthington Biochemical Corporation, Lakewood, NJ) and incubated for 1 h at 37° C. […] Geometric mean fluorescence intensity (gMFI) was calculated with FlowJo software. […] Cells were then stained with CD8, CD45, CD4, Gating was determined based on unstimulated controls. […]

SSM2 cells = experiment: Cell viability, crystal violet, 48 h; assay type: cell-based, mouse; details: SSM2, 500 nM SmAbH1 vs 8 nM Fulvestrant
Experimental: (§1) For proliferation assays, cells were plated at 2000 cells per well of a 96-well dish. Four pictures of different regions in each well were taken every four hours for 48 h using an IncuCyte ZOOM (Essen BioScience, Ann Arbor, MI, USA). Percent confluence was determined using the IncuCyte ZOOM software (Essen BioScience). 66cl4 Sema7A DDK cells were plated in a 96-well plate in triplicate at 1,500 cells/well. They sat down over 24 hours and then were treated with 1000 nM IgG control, 10 nM SmAbH1, 100 nM SmAbH1, 200 nM SmAbH1, 500 nM SmAbH1, or 1000 nM SmAbH1. The plate was promptly transferred to the IncuCyte where photos were taken and analyzed every 4 hours for 7 days. For additional treatment studies in MCF7, TC11 and SSM2 cells ([…]) were plated in a 24-well plate in complete media and allowed to sit down over 24 hours. At 24 hours after plating, cells were treated with 500 nM IgG control, 500 nM SmAbH1, 8 nM Fulvestrant or the combination. The plate was incubated at 37 C for 48 hours, then fixed with 10% NBF and stained with crystal violet.

TC11 cells = experiment: Cell viability, crystal violet, 48 h; assay type: cell-based, mouse; details: TC11, 500 nM SmAbH1 vs 8 nM Fulvestrant
Experimental: as §1

B1: SmAbH1: mouse monoclonal antibody against SEMA7A generated using the 10-mer immunizing peptide … (SEQ ID NO: 2) (antibody, V domains shown)
VH: QVKLQESGTVLARPGASVKMSCKASVYSFTSYWMHWVKQRPGQGLEWIGAIYPGNSDTSYNQKFKGKAKLTAVTSASTAYMELSSLTNEDSAVYYCTRGGAPTMITAYYAMDYWGQGTSVTVSS
VL: DIQMTQTTSSLSASLGDRVTISCRASQDISNYLNWYQQKPDGTVKLLIYYTSRLHSGVPSRFSGSGSGTDYSLTISNLEQEDIATYFCQQGNTLPWTFGGGTKLEIKR
activated T cells in the tumors [1]: increased presence of activated T cells
cell viability compared to fulvestrant (SSM2 cells): more significantly reduced
cell viability compared to fulvestrant (TC11 cells): more significantly reduced
